According to the DeepSol protein solubility set:

Assay: soluble on expression in E. coli; label from the status in PepcDB or PDB records

Sequence | soluble on expression in E. coli
MAHHHHHHMSTDIPVNDNETNSSFKLKSEINSIENELKNWFLKRRLNMEINYSLKKLFDSYNFVGLSINNNINLKDKMLWYDIVNGKPELEDTLSMDAKEYKADQYSYLWNKSTTIDNACRLVGSIYFRCLKNNFQLKKSEREHKCIQNFINFNNCRNALKLQQANNIKDSLIKQNMEDNIAKALFERRSLLLDMLEDFK | not soluble
MSLQLLLVDDEEDANEELAELLEGEGFCCFTASSVKMALHQLTAHPDIALVITDLRMPEESGIQLIRHLREHTSRQHLPVIVTSGHADMDDVSDLLRLHVLDLFRKPIYHVRLLETLNNLFPEPKIFQEGHHHHHH | soluble
MSLHSDILVVGAGPAGLSFAAELAGSGLKVTLIERSPLTVLQNPPYDGREIALTHFSREIMQRLGMWDKIPENEIYPLRDAKVLNGRSDYQLHFPQPTEARGEPADCLGYLISNHNIRRAAYEVVSQLDNVSILTDTAVKEVKTSDNEAQVFLENGDILTARLLLAADSRFSQTRRQLGISSDMHDYSRTMFVCRMKHTLSNQHTAYECFHYGRTIALLPLEKRLTNTVITVDTDKINSVQNLSPEELAASVKEQLKGRLGDMELVSSIHHYPLVGMIAKRFYGKRSALIGDAAVGMHPVTAHGFNLGLSSADILAKLILEAEQRGQDIGAASLLEKYSSKHMLHAHPLYHGTNMMLKLFTNETAPAKLLRGLVLRAGNNFPPLKKLITKQLTGLEHHHHHH | soluble
MHWRLTVLFFASAQLSEGCLPMVPPEEPVTPVPVCPAGWFQFQRATGLWCYIFATPGAGWTTPQAACQANYGANLNGFESAAERTQFIQDMLASNLAPYTFVHIGAMRQCAPCTVNDPFVWLNGVSNDNTFANDYDSLYDLTGDCLSMDLGNNGQYNDITCDAETAYSCGKPAA | not soluble
SLPVRESLQKQVKILIGLGNLGFGGYRGLYTRFTNPNGFLEPASSDLLLINERRNLSVIGAVSRTFSVPSVSGPAFQVCGYHIDLLLSDPCKSMASLGSKSLFVDRHSASLVSKRFTGGMVSGDGPNRGRISMRLRGKDHNEKSTICAYFAYRGAKRWIYLNQQRRGMGFRGLHSSLSNRLSAGNAPDVSLDNSVTDEQVRDSSDSVAAKLCTKPLKLVSGSCYLPHPDKEATGGEDAHFICAEEQALGVADGVGGWAELGIDAGYYSRELMSNSVNAIQDEPKGSIDPARVLEKAHTCTKSQGSSTACIIALTNQGLHAINLGDSGFMVVREGHTVFRSPVQQHDFNFTYQLESGRNGDLPSSGQVFTVAVAPGDVIIAGTDGLFDNLYNNEITAIVVHAVRTNIDPQVTAQKIAALARQRAQDKNRQTPFSTAAQDAGFRYYGGKLDDITVVVSYVAASKEEGKH | soluble
MSHRPIAIFDFDGTLTRCDSLLPFLRQAQPVILFWLRLPFYLAMWMCYKLRLAPADRTKAAILSTVLKGKREVECRAMGQRFVPAIESILRPEALRCLEWHRSEGHRLVLLTASLLPCVEPWAEKTGFHTVIATLPEIKSGILTGRFEGNNCKGKEKIHRLDRALPHWRDSISYGYGDSPSDRPLLSLCTHSYYRRFPAL | not soluble
MSEMSLIMLAAGNSTRFNTKVKKQFLRLGNDPLWLYATKNLSSFYPFKKIVVTSSNITYMKKFTKNYEFIEGGDTRAESLKKALELIDSEFVMVSDVARVLVSKNLFDRLIENLDKADCITPALKVADTTLFDNEALQREKIKLIQTPQISKTKLLKKALDQNLEFTDDSTAIAAMGGKIWFVEGEENARKLTFKEDLKKLDLPTPSFEIFTGNGFDVHEFGENRPLLLAGVQIHPTMGLKAHSDGDVLAHSLTDAILGAAGLGDIGELYPDTDMKFKNANSMELLKQAYDKVREIGFELINIDICVMAQSPKLKDFKQAMQSNIAHTLDLDEFRINVKATTTEKLGFIGRKEGMAVLSSVNLKYFDWTRL | soluble
VSIYLKPIINKLTPESRNTLDSAINYAISRSHHEVDCLHLLWKLLQEHKYIAEVLYEQSLFNPEWVLNAIESELIRINTVPQSSPVFSESMQTLLEKTWIHASTKWQIDHIDIPVFLSTMINFRDSIFPLNVSDALCCDMDVAEELLISFSDEAEHSASHRPTDRSSHEYLSKYTENLSLRAETGKLDPVTGREKEVRQLIDILLRRRQNNPILTGEPGVGKSSIVEGLALQIASGRVPDVLKNVRIHALDMGALLAGASVRGEFENRLKSLLTELNSLDGTAILFIDEAHSLIGAGGLPGQTDAANLLKPALARGELRIIAATTWGEYKKYFEKDGALARRFQIVKVAEPNQDVTAEMLRSLLPMMEKHHNVSIREEAITATVHLSDRYLHGRRQPDKSVSLLDTACSRVAVSQSTSPDAIQDVEASLVRYQGELALLTQERSDVLRQEMLANKIAQLEEELEQLKSAWRHQSELVAKIQSSDDISSKNMYRKELESAYKKDSPMVFECVDKNCVADVVSGWTGVPLGVCLDGEQQKASGLLRCLEQRVLGQRYAMSAIASQVLICRADLKDPVKPDGVFLLAGPSGTGKTETARALAEFVYGDENKLITINMTEFQEAHTVSTLKGAPPGYVGFGQGGTLTERVSHNPYSVILLDEIEKAHPDVLEFFFQIFDSGIIEDAEGKMVSFRDCLIIMTSNFASENITNIWNDGETNRDRIKEMLLPLFNEHFGAAFMGRTNLIPFTPLHSKTLRDIVLIKIDKICQRFEQASGQMYKIEYNDSLIDWITHHCQCDKSGARDIDSVLNSTVLPVLARYLTDSEDNRTPKKIRISVRKNNITLRSSQFATRN | not soluble
MHHHHHHSSGVDLGTENLYFQSMGAGRRESEPRPTSARQLDGIRNIVLSNPKKRNTLSLAMLKSLQSDILHDADSNDLKVIIISAEGPVFSSGHDLKELTEEQGRDYHAEVFQTCSKVMMHIRNHPVPVIAMVNGLATAAGCQLVASCDIAVASDKSSFATPGVNVGLFCSTPGVALARAVPRKVALEMLFTGEPISAQEALLHGLLSKVVPEAELQEETMRIARKIASLSRPVVSLGKATFYKQLPQDLGTAYYLTSQAMVDNLALRDGQEGITAFLQKRKPVWSH | soluble
MSLTTLNIGLILPDVLGTYGDDGNALVLRQRARMRGINAEIQRVTLDDAVPSTLDLYCLGGGEDTAQILATEHLTKDGGLQTAAAAGRPIFAVCAGLQVLGDSFRAAGRVIDGLGLIDATTVSLQKRAIGEVETTPTRAGFTAELTERLTGFENHMGATLLGPDAEPLGRVVRGEGNTDVWAASENTDDQRQQFAEGAVQGSIIATYMHGPALARNPQLADLMLAKAMGVALKEGHHHHHH | not soluble
MGSDKIHHHHHHKVEGNGNIITKEISVDNYSEIELGGNIEYSGNNFWGNRSNKKFPVFKYTHGRSASLKITIDENLFPLLSIKSNNGRLAIRIQDGTRIKPTQYVIEGSSKTLKYLKTSGPMDFEAQNAFSEDQLEIKISGSSDVKFPHNVKLRLGEFSVSGSGDLVFEDLDCKNLTSKVSGSGDITLKGKADEARYSVSGSGDIKAYDLSVNDLSCSVSGSGDARVYAKDNMNLSVSGSGDIRYKGPANVNKSKSGSGSIQGAN | not soluble
MGSSHHHHHHSSGRENLYFQGHMNPNFLDFEQPIADLQAKIEELRLVGNDNALNISDEISRLQDKSKALTENIFGNLSSWQIAQLARHPKRPYTLDYIGYLFSDFEELHGDRHFADDPAIVGGVARLDGSPVMVIGHQKGREVREKVRRNFGMPRPEGYRKACRLMEMAERFKMPILTFIDTPGAYPGIDAEERGQSEAIAWNLRVMARLKTPIIATVIGEGGSGGALAIGVCDQLNMLQYSTYSVISPEGCASILWKTAEKAPEAAEAMGITAERLKGLGIVDKVIDEPLGGAHRDPASMAESIRGELLAQLKMLQGLEMGELLERRYDRLMSYGAP | soluble
MGSDKIHHHHHHMKNNHTLIIGGGIVGATLALKLAQDNKPVTLIDARPKRSEADWQQVLGQRDARVYALSLASIHLLKEVGAWQKIAASERKADYSQMQVWQLNGMGELLFGDSGDSNSSTGNSNVANNNDNTEPKMLGSMVEPAVIEHALWQRLSAPDVSQYLTVIAGHKVVDMDWLGATQGYRVTLDNGDVIDARLLVGADGRGSFVRKQAGIELDVLDYNQTAICCAIQTEKPHLATARQAMLPTGTLALLPLADITDEDKANPQHWQSIVWTLPRNQALALVAEHPCYIADKLAAASHYELGAIHKIESIASFPLAAQQAKSYVADNLVLIGDAAHGVHPLAGQGLNLGMLDVRALSKQLAHDYNRSGGTLWGANQTLRSYERLRRPHNSLMMHSFSALNWLFAGSLAQIRPVQQLRNEGMYRVSKIKPLMRLFAKQASGV | not soluble
KYVDGFLIPIAKDKVNKYREIAQKSSQIWKDLGALEYYECIGDDLDIEELVSFKKVVNASEEETVIFSWIVYESKEQRDKVNEAVMNDPRMKEMMETSEYDLFDYRRMSYGGFKTLVSL | not soluble
MQSISNCPIGLVSKNTINSASTIAEWVACPWKYINVVGSGRYVSNKPDKITRYDLLKAAQEAEMQELLTRNDMKGRHKRNKKSKIALETIAEENSSTESLF | not soluble
MGSDKIHHHHHHMNKNQYPKWEELPELDLYLDQVLLYVNQLINPKTITNDKLLTASMINNYVKHNYISKPIKKKYNRRQVARLIVITAFKQVFAIQEISQTLELLTADNHSEEAYNGFAACMNKEEVHDLPPVVISACQTLNLYQETQKLVLELGGKNKNA | not soluble
MKALARFGKAFGGYKMIDVPQPMCGPEDVVIEIKAAAICGADMKHYNVDSGSDEFNSIRGHEFAGCIAQVGEKVKDWKVGQRVVSDNSGHVCGVCPACEQGDFLCCTEKVNLGLDNNTWGGGFSKYCLVPGEILKIHRHALWEIPDGVDYEDAAVLDPICNAYKSIAQQSKFLPGQDVVVIGTGPLGLFSVQMARIMGAVNIVVVGLQEDVAVRFPVAKELGATAVVNGSTEDVVARCQQICGKDNLGLVIECSGANIALKQAIEMLRPNGEVVRVGMGFKPLDFSINDITAWNKSIIGHMAYDSTSWRNAIRLLASGAIKVKPMITHRIGLSQWREGFDAMVDKTAIKVIMTYDFDE | soluble
MTAKQFRHGGENLAVRYALADCELGRCLVAESERGICAILLGDDDATLISELQQMFPAADNAPADLMFQQHVREVIASLNQRDTPLTLPLDIRGTAFQQQVWQALRTIPCGETVSYQQLANAIGKPKAVRAVASACAANKLAIVIPCHRVVRGDGSLSGYRWGVSRKAQLLRREAENEER | soluble
MSLTMVQVTLEVNGRQVAHEAPPRMHLGDFLRDQARLTGTHLGCEHGVCGACTVLVDGQPVRSCITYAVACEGRQVTTIEGYDGDPVMARLRAAFTKYHALQCGYCTPGMLTTSRDIVLRLPDADEARVRVELSGNLCRCTGYMGIVGAVMSVLRDLREQPDAAVQALRAAAADGRLPAPRGEQPIAFQPFTPSAPSGKGNQIVDAFTVPFPAAEVWAFMVDLPAVAACLPGAVIEETDGQRVKGKIAIKFGPMAAAFNGAARLERDEAAMRAVFRGAGQDSLSQSRATGDIAYQVEAVSENETRVKVDLQYALQGPLAQFSRSGLVQDFVRRMIADFGKNVTARLREGHHHHHH | soluble
DLSKNSDVAYLWCSSNKLTSLNLSGVKGLSVLVCHSNQIAGEEMTKVVNALPTLSPGAGAQSKFVVVDLKDTDEKNICTVKDVEKAKSKNWRVFDFNGDSDNMLPYEGSPTSNLAVDAPTVRIYPNPVGRYALVEIPESLLGQEAALYDMNGVKVYSFAVESLRQNIDLTHLPDGTYFFRLDNYTTKLIKQ | not soluble
MGSDKIHHHHHHMPFLLFKFPGKRVLGFSFEGRPHRHATGLSRFLDVHGAAYACELGRLSSELVGASEGALLKRLESLYDEILIDEVQDLSAHDWEIVDALLHSSIHIRMVGDIRQSVLATNPRSTKNKQYAYAETVKWFREREQLGRLAIRESVETWRCHPKIAAFSDTIFDASWAFPSTVSRNDAMTDHDGVFLLTKKHVRDYVERFAPQCLRSMAGSGKEFNLDFMNFKVAKGSTFERVLIMPTAGITDFVRKGSSLEPVPAASFYVAVTRAAQSVAMVIDNAGASTLPYWTP | not soluble
MKEDLLDIVCCPLDKHDLTLDADATEDGEVMAGTLTCTDCGETYPIEDGIPNLLPPDMRDDAESASALEHHHHHH | not soluble
